In the assay the target is ubiquitin (15N-Ub) (UniProt P0CG48 1-76). Put plainly: NMR titration.

Usually Kd stands for the free concentration of one partner at which half of the binding sites on the other are occupied at equilibrium, for simple one-to-one binding. A high value points to lower affinity.

B1: V domain of human Alix (domain or fragment)
chain: FEKMVPVSVQQSLAAYNQRKADLVNRSIAQMREATTLANGVLASLNLPAAIEDVSGDTVPQSILTKSRSVIEQGGIQTVDQLIKELPELLQRNREILDESLRLLDEEEATDNDLRAKFKERWQRTPSNELYKPLRAEGTNFRTVLDKAVQADGQVKECYQSHRDTIVLLCKPEPELNAAIPSANPAKTMQGSEVVNVLKSLLSNLDEVKKEREGLENDLKSVNFDMTSKFLTALAQDGVINEEALSVTELDRVYGGLTTKVQESLKKQEGLLKNIQVSHQEFSKMKQSNNEANLREEVLKNLATAYDNFVELVANLKEGTKFYNELTEILVRFQNKCSDIVFARKTER
In turn, B1 displayed a Kd of about 50 µM.

B2: V domain of HD-PTP (domain or fragment, human, UniProt Q9H3S7 401-714, looked up)
chain: MQLDPETVDNLDAYSHIPPQLMEKCAALSVRPDTVRNLVQSMQVLSGVFTDVEASLKDIRDLLEEDELLEQKFQEAVGQAGAISITSKAELAEVRREWAKYMEVHEKASFTNSELHRAMNLHVGNLRLLSGPLDQVRAALPTPALSPEDKAVLQNLKRILAKVQEMRDQRVSLEQQLRELIQKDDITASLVTTDHSEMKKLFEEQLKKYDQLKVYLEQNLAAQDRVLCALTEANVQYAAVRRVLSDLDQKWNSTLQTLVASYEAYEDLMKKSQEGRDFYADLESKVAALLERTQSTCQAREAARQQLLDRELKK
Take B2: the Kd is about 50 µM.

The values above are taken from PMC3755756 (Developmental cell, 2013).
